This note sets out measurements from patent publication US20220000982A1 (Novo Nordisk, published 2022).

*1 amine or outer side, *2 acyl side, *3 side chain or, on linkers, in order; H or OH if unused. Where no end group is shown, it is not given here. Side-chain parts run from the residue outwards. [ ]: non-standard residue; d: D form. The star is where a group is joined. C18 diacid = O=C(O)CCCCCCCCCCCCCCCCC(=O)*; γGlu = O=C(O)[C@H](CCC(=O)[*:2])N[*:1]; Nle = CCCC[C@H](N)C(=O)O; AEEA = NCCOCCOCC(=O)O; Aib = CC(C)(N)C(=O)O

T1: human GIP receptor (human, UniProt P48546 22-466)
T1 sequence (looked up): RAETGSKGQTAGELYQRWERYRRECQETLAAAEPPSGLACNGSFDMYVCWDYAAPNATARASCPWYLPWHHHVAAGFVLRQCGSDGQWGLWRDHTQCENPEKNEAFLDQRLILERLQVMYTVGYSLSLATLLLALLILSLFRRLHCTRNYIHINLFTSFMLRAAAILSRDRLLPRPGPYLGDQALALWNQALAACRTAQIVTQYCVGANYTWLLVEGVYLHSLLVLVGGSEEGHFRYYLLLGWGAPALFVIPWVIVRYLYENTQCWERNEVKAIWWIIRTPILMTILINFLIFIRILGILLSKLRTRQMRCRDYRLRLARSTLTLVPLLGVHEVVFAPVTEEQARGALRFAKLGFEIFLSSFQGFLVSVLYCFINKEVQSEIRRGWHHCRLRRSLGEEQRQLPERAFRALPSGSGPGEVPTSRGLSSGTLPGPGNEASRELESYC

B1: N{Epsilon-24}-[2-[2-[2-[[2-[2-[2-[[(4S)-4-carboxy-4-(17-carboxyheptadecanoylamino)butanoyl]amino]ethoxy]ethoxy]acetyl]amino]ethoxy]ethoxy]acetyl]-[Aib2,Nle14,Ly … (peptide)
peptide: Y[Aib]EGTFISDYSIA[Nle]DKIHQQDFVK([AEEA-AEEA-γGlu-C18 diacid])WLLAQKGKEDDWKHNITQ
B2: N{Epsilon-24}-[2-[2-[2-[[2-[2-[2-[[(4S)-4-carboxy-4-(17-carboxyheptadecanoylamino)butanoyl]amino]ethoxy]ethoxy]acetyl]amino]ethoxy]ethoxy]acetyl]-[Aib2,Leu14,Ly … (peptide)
peptide: Y[Aib]EGTFISDYSIALDKIHQQDFVK([AEEA-AEEA-γGlu-C18 diacid])WLLAQKGKKNDWKHNITQ
B3: N{Epsilon-24}-[2-[2-[2-[[2-[2-[2-[[(4S)-4-carboxy-4-(17-carboxyheptadecanoylamino)butanoyl]amino]ethoxy]ethoxy]acetyl]amino]ethoxy]ethoxy]acetyl]-[Aib2,Nle14,Ar … (peptide)
peptide: Y[Aib]EGTFISDYSIA[Nle]DKIRQQDFVK([AEEA-AEEA-γGlu-C18 diacid])WLLAQKGKEEDWKHNITQ
B4: N{Epsilon-24}-[(4S)-4-carboxy-4-[[(4S)-4-carboxy-4-[[(4S)-4-carboxy-4-(17-carboxyheptadecanoylamino)butanoyl]amino]butanoyl]amino]butanoyl]-[Aib2,Nle14,Arg18,Ly … (peptide)
peptide: Y[Aib]EGTFISDYSIA[Nle]DKIRQQDFVK([γGlu-γGlu-γGlu-C18 diacid])WLLAQKGKEEDWKHNITQ
B5: N{Epsilon-24}-[(4S)-4-carboxy-4-[[(4S)-4-carboxy-4-[[(4S)-4-carboxy-4-(17-carboxyheptadecanoylamino)butanoyl]amino]butanoyl]amino]butanoyl]-[Aib2,Nle14,Lys24,Gl … (peptide)
peptide: Y[Aib]EGTFISDYSIA[Nle]DKIHQQDFVK([γGlu-γGlu-γGlu-C18 diacid])WLLAQKGKEDDWKHNITQ
B6: N{Epsilon-24}-[(4S)-4-carboxy-4-[[(4S)-4-carboxy-4-[[(4S)-4-carboxy-4-(17-carboxyheptadecanoylamino)butanoyl]amino]butanoyl]amino]butanoyl]-[Aib2,Nle14,Lys24,Gl … (peptide)
peptide: Y[Aib]EGTFISDYSIA[Nle]DKIHQQDFVK([γGlu-γGlu-γGlu-C18 diacid])WLLAQKGKEEDWKHNITQ

The first experiment has as its target T1, human GIP receptor. Description: cell-based or functional assay.
Consider B1, for which the “EC50, hGIP-R CRE Luc, 0.2% HSA” value was 0.00597 nM.
As for B2, the “EC50, hGIP-R CRE Luc, 0.2% HSA” value turned out to be 0.056 nM.
Same read-out and setting: to B3 belongs 0.00412 nM; to B4, 0.00447 nM; to B5, 0.0059 nM.
On to B6, for which the “EC50, hGIP-R CRE Luc, 0.2% HSA” value was determined as 0.009 nM.

The target in another experiment is human glucagon receptor (human, UniProt P47871 26-477). Description: cell-based or functional assay.
Chain of human glucagon receptor (P47871 26-477): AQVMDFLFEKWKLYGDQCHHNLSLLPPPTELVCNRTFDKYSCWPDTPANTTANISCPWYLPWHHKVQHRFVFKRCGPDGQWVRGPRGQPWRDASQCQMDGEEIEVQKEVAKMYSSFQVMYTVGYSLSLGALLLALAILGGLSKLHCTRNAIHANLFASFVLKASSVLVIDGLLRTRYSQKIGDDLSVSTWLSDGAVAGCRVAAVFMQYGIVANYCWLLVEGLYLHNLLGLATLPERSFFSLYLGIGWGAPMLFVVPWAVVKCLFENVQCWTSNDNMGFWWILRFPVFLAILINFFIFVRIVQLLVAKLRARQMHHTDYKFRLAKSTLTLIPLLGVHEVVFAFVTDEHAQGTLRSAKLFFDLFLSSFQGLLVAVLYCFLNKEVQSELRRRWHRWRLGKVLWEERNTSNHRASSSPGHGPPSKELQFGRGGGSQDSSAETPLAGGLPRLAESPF
Regarding B1, the “EC50, hGcg-R CRE Luc, 0.2% HSA” value is greater than 100 nM.
Consider B2, for which the “EC50, hGcg-R CRE Luc, 1% HSA (*)” value was greater than 100 nM.
On to B3, for which the “EC50, hGcg-R CRE Luc, 0.2% HSA” value is greater than 100 nM.
For B4, the “EC50, hGcg-R CRE Luc, 0.2% HSA” value was greater than 100 nM.
On the same count and under the same terms, in the case of B5 it was greater than 100 nM; in that of B6, greater than 100 nM.

A further experiment concerns the target human GLP-1 receptor (human, UniProt P43220 24-463). The experiment in a line: cell-based or functional assay.
With B1, the “EC50, hGLP-1-R CRE Luc, 0.2% HSA” value was greater than 100 nM.
For the molecule B2, the “EC50, hGLP-1-R CRE Luc, 1% HSA (*)” value was greater than 100 nM.
With B3, the “EC50, hGLP-1-R CRE Luc, 0.2% HSA” value was greater than 100 nM.
Consider B4, for which the “EC50, hGLP-1-R CRE Luc, 0.2% HSA” value was greater than 100 nM.
With B5, the “EC50, hGLP-1-R CRE Luc, 0.2% HSA” value is greater than 100 nM.
As to B6, the “EC50, hGLP-1-R CRE Luc, 0.2% HSA” value was greater than 100 nM.
